Experimental data reported in patent US20020015981A1 (Amgen, published 2002).

Molecular target: T1, human α2-polyHis-tag (human, UniProt Q96T91 24-129)
T1 construct: also called human α2 polypeptide; alpha-2; not shown: polyHis tag
T1 sequence (looked up): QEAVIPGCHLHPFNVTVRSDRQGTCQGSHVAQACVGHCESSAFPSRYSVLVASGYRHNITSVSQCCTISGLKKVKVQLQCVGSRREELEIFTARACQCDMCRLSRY
Test: heterodimerization assay: co-transfection, immunoprecipitation, Western blot
Description: A human α2-polyHis-tag mammalian expression vector and a human β10-FLAG-tag mammalian expression vector were co-transfected into 293 cells and serum free conditioned media was harvested after 72 hours. Immunoprecipitation was done using anti-FLAG M2-Agarose affinity beads (Cat# A1205, Sigma, St. Louis, Mo.). A Western blot of this immunoprecipitate was probed with affinity purified anti-α2 rabbit polyclonal antibodies (example 4) that had been conjugated to Horse Radish Peroxidase (Linx HRP Rapid Protein Conjugation Kit, cat# K8050-01, Invitrogen Corp., Carlsbad, Calif.). A strong α2-polyHis-tag band was observed using the ECL Western Blot detection kit (cat#RPN 2106, Amersham Pharmacia Biotech, Piscataway, N.J.). […] No α2-polyHis-tag band was observed if either of these 2 components was left out of the experiment or if plain agarose beads (i.e. without anti-FLAG antibodies) were used for the immunoprecipitation step.

binding result: binds
B1: human β10-FLAG-tag (ligand)
chain: ASSGNLRTFVGCAVREFTFLAKKPGCRGLRITTDACWGRCETWEKPILEPPYIEAHHRVCTYNETKQVTVKLPNCAPGVDPFYTYPVAIRCDCGACSTATTECETI
notes: Secreted from transfected 293 cells; the cleavage site is predicted, not determined; also called human β10 polypeptide; beta-10; not shown: FLAG tag
